Experimental data: patent US20090191228A1

How the values were obtained:
[1] = target: dH5-0 (recombinant hemagglutinin 5 of H5N1 strain A/Vietnam/1203/04, stock as supplied by Protein Sciences) (influenza virus H5N1 strain A/Vietnam/1203/04)
[2] = target: dH5-0 (recombinant hemagglutinin 5 of H5N1 strain A/Vietnam/1203/04, stock as supplied by Protein Sciences) (influenza virus H5N1 strain A/Vietnam/1203/04); assay: ELISA, immobilized H5 forms, Fn F4-5 in solution; normalized to cdH5-0

Row | Substance | Bmax [1] | Kd [1] | Normalized affinity, kD (%) [2]
1 | tissue type plasminogen activator (tPA) (from UniProt P00750 36-562) (enzyme) | 0.32 | 96 nM | –
2 | fourth and fifth finger domain of fibronectin (Fn F4-5) (from UniProt P02751 183-275) | – | – | 103%
